Source: publication PMC6929039
pKd: −log10 of the molar value. “And” between values parts separate entries of the source, which are not always exact repeats. Identical values can stand only once.

How the values were obtained:
[1] = biological target: Concanavalin A (Con A) internal_change (UniProt P02866); test: particle flow cytometry; conditions: after the 20-nt 5' primer: every T = mannose-clicked C8-alkyne-dU (4), binding buffer, salt, pH and temperature not given in the material (hemagglutination: 30 min preincubation at RT)
[2] = biological target: Concanavalin A (Con A) internal_change (UniProt P02866); test: BLI; conditions: after the 20-nt 5' primer: every T = mannose-clicked C8-alkyne-dU (4), binding buffer, salt, pH and temperature not given in the material (hemagglutination: 30 min preincubation at RT)
[3] = every C = 5-formyl-dC (2), primer unmodified

“GATCCCAGTCCGAAGTAATCGTTGCATCTGCACGACTGGTGAGCTTGAGTGGCAGAAGAACTTGTGCAAACGGCTATAGG [ConA-3-1m]” was tested, and the pKd ([1]; C natural) was 7.77 and the pKd ([2]; C natural) was 8.49 and 8.28.
In the case of “GATCCCAGTCCGAAGTAATCGTTGCATCTGCACGACTGGTGAGCTTGAGTGGCAGAAGAACTTGTGCAAACGGCTATAGG [ConA-3-1]”, the pKd [1, 3] was 7.70 and the pKd [2, 3] was 8.24.
